Columns and labels:
[1] = molecular target: huIL-17RA-FLAG-polyHis (human) (UniProt Q96F46); test: multiplexed binning, huIgG row/col I (IL-17RA on AMH22/AML22 bead)
[2] = molecular target: huIL-17RA-FLAG-polyHis (human) (UniProt Q96F46); test: multiplexed binning, huIgG row/col K (IL-17RA on AMH14/AML14 bead)
[3] = molecular target: huIL-17RA-FLAG-polyHis (human) (UniProt Q96F46); test: multiplexed binning, huIgG row/col L (IL-17RA on AMH19/AML19 bead)

- normalized MFI [1]: -72
- normalized MFI [2]: -235
- normalized MFI [3]: -36
Substance: huIgG (antibody)
